Drawing on patent US6376653 (GlaxoSmithKline, dated 2002), this text covers Kd for one molecule.

A word on the Kd: it is the free concentration of one partner at which half of the binding sites on the other are occupied at equilibrium, for simple one-to-one binding.

This assay addresses T1, recombinant Tie2 extracellular domain-Fc fusion (UniProt Q02763 23-748, limits assumed).
T1 construct: extracellular domain; also called Tie2-Fc; Tie2 receptor-Fc fusion; not shown: Fc part
The assay is described as follows: BIAcore SPR, purified mAb captured on rabbit anti-mouse IgG Fc, Tie2-Fc injected. On the procedure:
The affinity of the purified mAbs was measured in the BIAcore. Using a flow rate of 10 μl/min, the mAb (diluted in HBS buffer) was injected over a rabbit anti-mouse IgG Fc surface, followed by buffer flow and the RU recorded. Tie2-Fc diluted in HBS buffer was then injected for 120 s followed by buffer flow for 240 s and regeneration of the sensor chip surface with an injection of 15 μl 0.1 M phosphoric acid. BIAcore software was used for association and dissociation-phase analysis. The murine monoclonal antibodies bound to soluble monomeric Tie2 receptor. The on-rates ($kass$) and off-rates ($kdiss$) were calculated.

T1 sequence (Q02763 23-748 limits assumed): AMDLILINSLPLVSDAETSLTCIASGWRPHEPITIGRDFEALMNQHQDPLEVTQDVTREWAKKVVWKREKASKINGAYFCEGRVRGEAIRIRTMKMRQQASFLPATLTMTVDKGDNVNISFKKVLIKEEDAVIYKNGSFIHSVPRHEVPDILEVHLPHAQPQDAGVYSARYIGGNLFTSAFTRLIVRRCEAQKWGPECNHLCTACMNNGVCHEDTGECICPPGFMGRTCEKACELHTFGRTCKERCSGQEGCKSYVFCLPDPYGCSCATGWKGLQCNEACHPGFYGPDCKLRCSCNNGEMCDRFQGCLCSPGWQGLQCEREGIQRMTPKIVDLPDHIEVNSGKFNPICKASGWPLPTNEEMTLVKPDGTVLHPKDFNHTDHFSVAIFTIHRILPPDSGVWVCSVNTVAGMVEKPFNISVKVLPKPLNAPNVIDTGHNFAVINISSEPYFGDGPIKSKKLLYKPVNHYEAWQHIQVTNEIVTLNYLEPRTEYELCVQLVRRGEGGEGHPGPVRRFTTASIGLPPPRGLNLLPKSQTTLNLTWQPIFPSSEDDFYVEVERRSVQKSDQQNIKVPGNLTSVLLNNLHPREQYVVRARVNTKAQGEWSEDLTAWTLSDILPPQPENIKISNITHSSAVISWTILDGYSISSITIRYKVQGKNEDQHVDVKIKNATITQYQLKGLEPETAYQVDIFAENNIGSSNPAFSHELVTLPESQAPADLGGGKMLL

B1: monoclonal antibody 12H8 (antibody, V domains shown)
VH: EVQLVESGGGLVKPGGSLKLSCAASGFTFSDYGMHWVRQAPEKGLEWVAYINSGSSTITYADTVKGRFTISRDNAKNTLFLQMTSLRSEDTAIYYCARGYYGPYYFDYWGQGTALTVSS
VL: DIVMTQSHKFMSTSVGDRVSFTCKASQNVGTAVAWYQQKPGQSPKLLIYWASSRHTGVPDRFTGSGSGTDFTLTITNVQSEDLADYFCQEYSSYPLTFGVGTKLELK
notes: also called mAb 12H8
For B1, the dissociation constant Kd was less than 0.1 nM.
